The target of data set [1] is T1, FLAG-RTCB, the catalytic subunit of the human tRNA ligase (Homo sapiens, UniProt Q9Y3I0).
T1 construct: FLAG; made in house; host or cells: HEK293 cells (FLAG-RTCB)
As to the kind of experiment: Assay to monitor Archease function and inhibition of RNA ligase activity (linear intron substrate). Type of data set: biochemical. Conditions: FLAG-RTCB from HEK293 cells with His-tagged Archease, GTP or GMPcPP at 0.5 mM. As for the experimental part: FIG. 14: Assay to monitor inhibition of RNA ligase activity. […] The linear substrate (second from bottom to top) is converted into a circular product (bottom) or a concatemer (top), which is further circularized (third from bottom to top). Ligation only took place with wild-type Archease and GTP.
The RNA ligation activity of FLAG-RTCB, the catalytic subunit of the human tRNA ligase, was determined in the presence of wildtype or mutant (D39A) Archease with the addition of GTP or non-hydrolysable GMPcPP (5′-guanylylmethylenebisphosphonate). […] The reaction was carried out with FLAG-RTCB purified from HEK293 cells and hexahistidine tagged wild-type or mutant Archease. Furthermore, GTP or GMPcPP were used at 0.5 mM concentration. A linear intron derived from a radioactively labelled pre-tRNA that was transcribed with T7 polymerase and cleaved with recombinant tRNA endonuclease from Methanocaldococcus jannaschii served as substrate. Cleavage products were resolved on preparative denaturing polyacrylamide gels and the linear intron was eluted overnight and recovered by precipitation. With reference to FIG. 14, FLAG-RTCB and wild-type Archease in the presence of GTP are able to convert the linear substrate (second from bottom to top) into a circular product (bottom) or a concatemer (top), which is further circularized (third from bottom to top). This type of assay can be used to validate candidate inhibitors of the Archease or even the ligase or to screen compound libraries in order to find inhibitory molecules.

In data set [2] the test system is pre-cleaved tRNA substrates. The data set can be described thus: RNA ligase activity assay of affinity-purified FLAG-tagged Archease on pre-cleaved tRNA substrates. Conditions: FLAG immuno-precipitate. Type of data set: biochemical, human. As for the experimental part: A) Coomassie Blue stained preparations of FLAG-tagged Archease and HSPC117 affinity purified at 150 mM NaCl. B) RNA ligase activity assay of FLAG-HSPC117 and FLAG-Archease using pre-cleaved tRNA substrates. Extracts of HEK 293 cells were used as a negative control. * Indicates unspecific products.
Stable cell lines expressing a FLAG-tagged version of Archease and HSPC117 were generated to perform immuno-precipitations. Fluted FLAG-Archease was assayed for tRNA ligation in parallel with FLAG-HSPC117, which contains the entire tRNA ligase complex.

Data set [3] deals with cleaved Xbp1 RNA minimal substrate. The data set can be described thus: In vitro Xbp1 splicing (exon ligation) assay with Ire1 pre-cleaved Xbp1 RNA. The note with it: for Stimulation of ligation of Xbp1 RNA minimal substrates by affinity purified human tRNA ligase complex: addition of recombinant protein. Type of data set: biochemical, human. The text has this:
FIG. 8: The human tRNA ligase HSPC117 and Archease are both required for non-conventional splicing of Xbp1 mRNA during the Unfolded Protein Response (UPR). A) Experimental outline for in vitro splicing assay. B) An internally labeled fragment of Xbp1 mRNA was pre-cleaved with recombinant Ire1 endonuclease and supplemented with buffer or HeLa whole-cell extract (wce) for the indicated time points to allow ligation of exon halves. Formation of splice product is specific to the presence of both Ire1 and cell extract. Lanes marked “unspliced” and “spliced” contain control transcripts to mark the size of the splice product. C) HSPC117 and Archease both contribute to non-conventional splicing. 3′ end labeled Xbp1 was pre-cleaved with Ire1 and supplemented with whole-cell extract from HeLa cells treated with siRNAs as indicated above the lanes. Cell extracts were harvested 72 hrs post transfection. D) Ligase activity for non-conventional splicing resides in HSPC117 but not in Archease. In vitro splicing assay using 3′end labeled Xbp1 carried out using whole cell extract (input) or FLAG-IP from HEK293 cells stably expressing FLAG-HSPC117, FLAG-Archease or FLAG-DDX1. Ligation activity is only found in IPs of integral members of the tRNA ligase complex. E) Non-conventional splicing activity is stimulated by addition of Archease. Splicing assay using 3′ end labeled Xbp1 carried out as above with addition of buffer or recombinant protein as indicated above the lanes. […] Bovine Serum Albumine (BSA) was included as control.
For the splicing assay RNA was prepared by T7-transcrition from PCR product containing spliced and unspliced form of human Xbp1. Substrates were labelled internally using a-GTP and at the 3′end using ligation to pCp. Substrate was pre-cleaved with recombinant Ire1 for 5 mins in tRNA ligation buffer with subsequent addition of protein extract of FLAG-IP eluate to total volume of 5 μl. Samples were treated with proteinase K and phenol-chloroform extracted prior to loading on 10% PAGE gel.
Perturbation of normal ER function causes mis- or unfolded proteins to accumulate leading to activation of the unfolded protein response (UPR). One of three UPR pathway inducers in mammals, the ER transmembrane protein Ire1, cleaves the Xbp1 mRNA specifically to remove a 26 nt intron (FIG. 8A). […] None of the additional four components of the tRNA ligase complex were required for ligation in agreement with previous findings (WO 2012/28606). […] The reduced ligation activity seen in Archease-depleted extracts raised the question whether Archease is an RNA ligase or rather acts to stimulate the ligation activity of other ligases. To address this question stable cell lines expressing FLAG-tagged versions of HSPC117, Archease, and DDX1 (a DEAD-box helicase component of the human tRNA ligase complex) were generated and the Xbp1 ligation assay using FLAG-IPs was performed.
To further address the stimulatory activity of Archease both HSPC117 and Archease were depleted by RNAi and then an Archease rescue-construct containing either WT or MUT Archease was introduced.

In data set [4] the target is T2, human tRNA ligase complex (Homo sapiens, UniProt Q9Y3I0).
T2 construct: FLAG; made in house; Archease expressed in E. coli
T2 sequence (Q9Y3I0 whole entry): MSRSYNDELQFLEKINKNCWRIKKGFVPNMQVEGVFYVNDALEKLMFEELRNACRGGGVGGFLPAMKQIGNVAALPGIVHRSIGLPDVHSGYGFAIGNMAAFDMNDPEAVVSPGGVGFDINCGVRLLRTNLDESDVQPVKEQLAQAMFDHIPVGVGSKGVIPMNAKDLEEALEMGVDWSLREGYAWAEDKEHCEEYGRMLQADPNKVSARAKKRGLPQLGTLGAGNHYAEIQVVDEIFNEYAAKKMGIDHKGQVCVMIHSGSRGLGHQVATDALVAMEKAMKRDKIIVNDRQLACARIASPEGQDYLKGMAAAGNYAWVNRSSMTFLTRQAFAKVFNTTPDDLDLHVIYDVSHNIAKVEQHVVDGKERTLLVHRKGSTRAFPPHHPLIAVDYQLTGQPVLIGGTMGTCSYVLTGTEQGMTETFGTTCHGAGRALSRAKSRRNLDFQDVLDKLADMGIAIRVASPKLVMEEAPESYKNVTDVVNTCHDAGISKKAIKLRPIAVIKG
T2 sequence (Q92499 whole entry partner): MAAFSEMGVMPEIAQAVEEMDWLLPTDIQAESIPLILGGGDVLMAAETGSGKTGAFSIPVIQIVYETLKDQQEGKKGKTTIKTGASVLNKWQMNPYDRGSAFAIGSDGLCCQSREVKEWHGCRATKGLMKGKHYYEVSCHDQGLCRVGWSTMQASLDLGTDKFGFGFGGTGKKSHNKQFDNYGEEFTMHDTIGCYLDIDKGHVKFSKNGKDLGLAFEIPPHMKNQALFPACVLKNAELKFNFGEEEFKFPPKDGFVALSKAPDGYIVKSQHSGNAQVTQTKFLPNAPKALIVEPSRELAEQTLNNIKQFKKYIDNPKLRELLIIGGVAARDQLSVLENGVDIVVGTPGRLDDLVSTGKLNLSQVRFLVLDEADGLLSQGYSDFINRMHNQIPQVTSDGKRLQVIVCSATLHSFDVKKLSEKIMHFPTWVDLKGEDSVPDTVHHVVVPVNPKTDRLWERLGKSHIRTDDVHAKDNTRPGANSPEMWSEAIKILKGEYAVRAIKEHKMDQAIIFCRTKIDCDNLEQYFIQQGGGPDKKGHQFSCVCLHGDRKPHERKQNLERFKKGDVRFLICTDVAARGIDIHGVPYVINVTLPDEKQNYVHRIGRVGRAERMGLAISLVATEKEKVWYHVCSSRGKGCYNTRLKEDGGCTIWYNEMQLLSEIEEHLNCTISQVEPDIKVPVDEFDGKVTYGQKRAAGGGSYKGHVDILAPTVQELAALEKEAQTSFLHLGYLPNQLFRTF
T2 sequence (Q52LJ0 whole entry partner): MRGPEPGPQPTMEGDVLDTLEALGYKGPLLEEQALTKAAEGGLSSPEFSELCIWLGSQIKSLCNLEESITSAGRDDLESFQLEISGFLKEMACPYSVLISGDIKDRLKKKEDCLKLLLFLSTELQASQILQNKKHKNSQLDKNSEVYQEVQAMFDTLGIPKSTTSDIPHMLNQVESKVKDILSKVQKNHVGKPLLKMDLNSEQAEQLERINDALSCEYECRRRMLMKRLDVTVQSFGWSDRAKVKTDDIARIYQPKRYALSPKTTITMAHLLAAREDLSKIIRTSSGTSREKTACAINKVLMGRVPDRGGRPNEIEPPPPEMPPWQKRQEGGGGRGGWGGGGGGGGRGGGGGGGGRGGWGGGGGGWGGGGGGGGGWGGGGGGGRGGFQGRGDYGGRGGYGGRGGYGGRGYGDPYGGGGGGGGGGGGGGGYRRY
T2 sequence (Q9BVC5 whole entry partner): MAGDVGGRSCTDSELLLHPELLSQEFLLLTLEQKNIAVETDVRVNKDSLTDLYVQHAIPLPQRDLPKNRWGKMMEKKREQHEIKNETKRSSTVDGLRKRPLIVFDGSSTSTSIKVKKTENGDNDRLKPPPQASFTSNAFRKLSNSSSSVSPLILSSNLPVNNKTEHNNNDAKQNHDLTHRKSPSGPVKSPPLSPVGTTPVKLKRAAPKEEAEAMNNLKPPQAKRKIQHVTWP
T2 sequence (Q9Y224 whole entry partner): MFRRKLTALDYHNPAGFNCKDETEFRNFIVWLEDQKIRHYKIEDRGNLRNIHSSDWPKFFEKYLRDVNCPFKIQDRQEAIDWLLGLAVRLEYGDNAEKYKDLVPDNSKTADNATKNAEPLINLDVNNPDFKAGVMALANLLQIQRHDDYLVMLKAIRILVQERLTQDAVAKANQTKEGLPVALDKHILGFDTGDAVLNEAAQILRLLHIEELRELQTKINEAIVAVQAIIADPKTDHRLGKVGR
As to the kind of experiment: RNA ligation assay with affinity-purified tRNA ligase complex and added recombinant Archease. Type of data set: biochemical. The note with it: pre-cleaved tRNA substrates or linear intron; time course. The procedure:
FIG. 3: Archease boosts RNA ligation by the human tRNA ligase complex. A) Time-course ligation assay with affinity-purified tRNA ligase complex and pre-cleaved tRNA substrates in absence or presence of recombinant Archease. B) Time course ligation assay with affinity purified tRNA ligase complex and isolated linear introns (2.5 μM) in absence or presence of recombinant Archease (8.5 μM) expressed in E. coli. The signals corresponding to the concatemerized intron were quantified and plotted as fraction of the total signal detectable in the respective lane.
FIG. 6: The point mutations D39A and K144A abolish the function of Archease in RNA ligation. A) Time-course of ligation activity of FLAG-HSPC117 complexes upon addition of recombinant wild-type or mutant Archease (15 μM). B) SDS-PAGE analysis of purified recombinant wild-type and mutant Archease.
Addition of Archaease influences ligase activity of affinity purified human tRNA ligase complexes.
To study the function of Archease the available NMR structure from the euryarchaeote Methanothermobacter thermautotrophicus (Yee et al., 2002) (36% identical to human protein) was used and aspartic acid (D) 39 and lysine (K) 144, both extremely conserved residues, were replaced by alanines (D39A; K144A) (FIG. 5). Wild-type and mutant versions of Archease were over-expressed in […] and tRNA ligase activity was measured. […] FIG. 6B confirms equal concentrations of recombinant proteins added to the reactions.

Positions count from the first letter of the chain named. Names may count otherwise.

T1 sequence (Q9Y3I0 whole entry): as the sequence (Q9Y3I0 whole entry) above
T1 sequence (Q92499 whole entry partner): as the sequence (Q92499 whole entry partner) above
T1 sequence (Q52LJ0 whole entry partner): as the sequence (Q52LJ0 whole entry partner) above
T1 sequence (Q9BVC5 whole entry partner): as the sequence (Q9BVC5 whole entry partner) above
T1 sequence (Q9Y224 whole entry partner): as the sequence (Q9Y224 whole entry partner) above

Consider `Nc1nc2c(ncn2[C@@H]2O[C@H](COP(=O)(O)CP(=O)(O)OP(=O)(O)O)[C@@H](O)[C@H]2O)c(=O)[nH]1` [GMPcPP, 5′-guanylylmethylenebisphosphonate], for which the “RNA ligation activity of FLAG-RTCB” value in data set [1] is listed as “strongly inhibits the ligation reaction”; in data set [1] (listed as GMPCPP), “inhibits the reaction”.

B1: FLAG-tagged Archease: FLAG-tagged version of Archease affinity purified from stable cell lines (protein)
chain: MAQEEEDVRDYNLTEEQKAIKAKYPPVNRKYEYLDHTADVQLHAWGDTLEEAFEQCAMAMFGYMTDTGTVEPLQTVEVETQGDDLQSLLFHFLDEWLYKFSADEFFIPREVKVLSIDQRNFKLRSIGWGEEFSLSKHPQGTEVKAITYSAMQVYNEENPEVFVIIDI
modifications: left off: small tags and cut ends
On to B1, for which the “RNA ligase activity of the affinity-purified protein itself” value in data set [2] is listed as “RNA ligase activity was only detectable in reactions containing affinity-purified RNA ligase complex but not FLAG-tagged Archease”. Besides, the “Xbp1 ligation activity of FLAG-IP” value in data set [3] (FLAG-IP from stable HEK293 cells) was “no ligation was detected”.

B2: K144A: Archease point mutant, lysine 144 replaced by alanine; inactive (protein, listed as Homo sapiens)
chain: B1 chain with K144A
Consider B2, for which the “RNA ligase activity of affinity purified tRNA ligase complex upon addition of recombinant Archease” value in data set [4] is on record as “neither of the mutant versions of Archease stimulated the low levels of ligation”. Besides, the “Stimulation of ligation of Xbp1 RNA minimal substrates by affinity purified human tRNA ligase complex” value in data set [3] was “inactive”.

B3: D39A: Archease point mutant, aspartic acid 39 replaced by alanine; inactive (protein, listed as Homo sapiens)
chain: B1 chain with D39A
With B3, the “RNA ligase activity of affinity purified tRNA ligase complex upon addition of recombinant Archease” value in data set [4] is reported as “neither of the mutant versions of Archease stimulated the low levels of ligation”. Moreover, the “Stimulation of ligation of Xbp1 RNA minimal substrates by affinity purified human tRNA ligase complex” value in data set [3] is “inactive”.

The values above are taken from patent US9296994B2, “Archease as RNA ligaes complex member” (IMBA—INSTITUT FÜR MOLEKULARE BIOTECHNOLOGIE GMBH, priority 2012, dated 2016).
